The results in this text go back to PMC9064986.

In experiment [1] the target is T1, Recombinant human BMP10 growth factor (GF)-domain (R&D Systems), O95393.
T1 chain: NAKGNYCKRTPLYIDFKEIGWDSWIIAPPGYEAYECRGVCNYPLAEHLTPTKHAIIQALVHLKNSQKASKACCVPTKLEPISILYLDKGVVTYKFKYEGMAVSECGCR
Description: SPR (Biacore). As to conditions: chain shown with the change, BMP10 immobilised on a CM5 Biacore chip.

Experiment [2] has as its target T2, BMP10 growth factor (GF)-domain from Pro:BMP10 made in HEK EBNA cells, O95393.
T2 chain: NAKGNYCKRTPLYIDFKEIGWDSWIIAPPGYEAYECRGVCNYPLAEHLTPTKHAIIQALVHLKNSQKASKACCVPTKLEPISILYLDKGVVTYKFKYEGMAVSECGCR
As to the kind of experiment: ELISA (prodomain displacement). The settings on record: chain shown with the change; BMPRII ECD at 125x excess over Pro:BMP10; lower reading = more prodomain displaced; parent: est. 0.42; read off a plot.

The target in experiment [3] is T2, BMP10 growth factor (GF)-domain from …. Description: native PAGE prodomain displacement (densitometry). As to conditions: chain shown with the change, lower ratio = more prodomain displaced, read off a plot.

B1: BMPRII extracellular domain (ECD), wild type, Q13873-1 ΔGDP (del of Gly, Asp and Pro in the A-loop) (protein)
chain: SQNQERLCAFKDPYQQDLGIGESRISHENGTILCSKGSTCYGLWEKSKGDINLVKQGCWSHIQECHYEECVVTTTPPSIQNGTYRFCCCSTDLCNVNFTENFPPPDTTPLSPPHSFNRDET
One may read the Kd as the free concentration of one partner at which half of the binding sites on the other are occupied at equilibrium, for simple one-to-one binding. A word on the koff: it is the rate constant with which the complex falls apart. With B1, the Kd in experiment [1] (parent: 1.19E-06 M) amounted to 1170 nM. Moreover, in experiment [1] (parent: 1.61E-01 s-1), the koff came to 0.0583 s⁻¹. For the same molecule, the other: OD reading, normalized to no BMPRII control in experiment [2] is 0.62. Besides, the other: Pro:BMP10/prodomain ratio, normalized to no BMPRII control in experiment [3] (BMPRII ECD at 2-fold excess (2x) over Pro:BMP10, parent: est. 0.59) worked out at 0.94; in experiment [3] (BMPRII ECD at 5-fold excess (5x) over Pro:BMP10, parent: est. 0.46), 0.74.
